Drawing on patent publication US20210340276A1, this text covers EC50 for seven molecules.

What is called EC50 is the concentration that produces a half-maximal response. The low end stands for greater potency, the high end for weaker potency.

B1: Sample No. 1: [DFO-C(═O)-(1,3-phenylene)-C(═O)-Gly-Lys-Z2]p-Fab (Fab, V domains shown)
VH: QVQLVQSGAEVKKPGASVKVSCKASGYTFTNYGLSWVRQAPGQGLEWMGENHPGSGIIYHNEKFRGRVTLTADRSTSTAYMELSSLRSEDTAVYYCARSSGTRGFDYWGQGTLVTVSS
VL: DVVMTQTPLSLSVTPGQPASISCRSSQSIVHSNGNTYLEWYLQKPGQSPQLLIYRVSNRFSGVPDRFSGSGSGTDFTLKISRVEAEDVGVYYCFQGSHGPWTFGQGTKLEIKR
modifications: may carry the labeling moiety; sites not stated; [DFO-C(═O)-(1,3-phenylene)-C(═O)-Gly-Lys-Z2] labeling moiety bound via 2-iminothiolane to amino group(s) of the Fab, one or two per Fab by MS, sites and chain not stated; N-terminal Gln into pyroglutamic acid in a great majority (Example 2)
B2: Sample No. 5: [DOTA-Gly-Lys-Z2]p-Fab (Fab, V domains shown)
VH: B1 VH
VL: B1 VL
modifications: may carry the labeling moiety; sites not stated; [DOTA-Gly-Lys-Z2] labeling moiety bound via 2-iminothiolane to amino group(s) of the Fab, one or two per Fab by MS, sites and chain not stated; N-terminal Gln into pyroglutamic acid in a great majority (Example 2)
B3: Sample No. 2: [DFO-C(═O)-CH2O-(1,3-phenylene)-C(═O)-Gly-Lys-Z2]p-Fab (Fab, V domains shown)
VH: B1 VH
VL: B1 VL
modifications: may carry the labeling moiety; sites not stated; [DFO-C(═O)-CH2O-(1,3-phenylene)-C(═O)-Gly-Lys-Z2] labeling moiety bound via 2-iminothiolane to amino group(s) of the Fab, one or two per Fab by MS, sites and chain not stated; N-terminal Gln into pyroglutamic acid in a great majority (Example 2)
B4: Sample No. 3: [DOTA-CH2-(1,4-phenylene)-NH-C(═S)]p-Fab (Fab, V domains shown)
VH: B1 VH
VL: B1 VL
modifications: may carry the labeling moiety; sites not stated; [DOTA-CH2-(1,4-phenylene)-NH-C(═S)] (from p-SCN-Bn-DOTA) bound to amino group(s) of the Fab, one to four per Fab by MS, sites and chain not stated; N-terminal Gln into pyroglutamic acid in a great majority (Example 2)
B5: Sample No. 7: [DOTA-Met-Ile-NH-(CH2)2-Z1]p-Fab (Fab, V domains shown)
VH: B1 VH
VL: B1 VL
modifications: may carry the labeling moiety; sites not stated; [DOTA-Met-Ile-NH-(CH2)2-Z1] labeling moiety bound via 2-iminothiolane to amino group(s) of the Fab, one to three per Fab by MS, sites and chain not stated; N-terminal Gln into pyroglutamic acid in a great majority (Example 2)
B6: Sample No. 6: [DOTA-NH-CH2-(1,3-phenylene)-C(═O)-Gly-Lys-Z2]p-Fab (Fab, V domains shown)
VH: B1 VH
VL: B1 VL
modifications: may carry the labeling moiety; sites not stated; [DOTA-NH-CH2-(1,3-phenylene)-C(═O)-Gly-Lys-Z2] labeling moiety bound via 2-iminothiolane to amino group(s) of the Fab, one to three per Fab by MS, sites and chain not stated; N-terminal Gln into pyroglutamic acid in a great majority (Example 2)
B7: Sample No. 4: [DOTA]p-Fab (Fab, V domains shown)
VH: B1 VH
VL: B1 VL
modifications: may carry the labeling moiety; sites not stated; DOTA bound directly (via N-hydroxysulfosuccinimidyl DOTA) to amino group(s) of the Fab, one or two per Fab by MS, sites and chain not stated; N-terminal Gln into pyroglutamic acid in a great majority (Example 2)

The test addresses Human cancer-specific MUC1 peptide (PTL 1) (human). The test can be described thus: ELISA, MUC1 peptide immobilized on 384-well plate, HRP anti-human Igκ detection, luminescence.
For B1, the EC50 turned out to be 0.29 nM. B2: the 50% effective concentration (EC50) stood at 0.31 nM. In turn, B3 gave an EC50 of 0.3 nM. This EC50 and that of the molecule before are within 1.5-fold of each other. In turn, B4 came in with an EC50 of 0.49 nM. This EC50 lies about 1.6-fold higher than the previous one. Under B5 stands 0.31 nM; under B6, 0.3 nM; under B7, 0.35 nM.
